Results as given in paper PMC9241938.

What was measured:
[1] = system: RpaB (Synechocystis sp. PCC 6803?); assay: EMSA; conditions: EMSA: 12 mM HEPES, 4 mM Tris, 12 mM KCl, 1 mM EDTA, 1 mM EGTA, 12% glycerol, 1 ug poly(dIdC); 3% agarose, 0.5x TBE; pH 8.2 or 5 tested; probe 3.85 pmol …
[2] = molecular target: cyAbrB1 (Sll0359), N-terminally 6*His-tagged recombinant protein (Synechocystis sp. PCC 6803); assay: native gel or EMSA; native SDS-PAGE (NSDS-PAGE) of the purified recombinant protein; native glycine polyacrylamide gel (15%, SDS omitted), running buffer 50 mM Tris-HCl, 200 mM glycine, 0.0375% SDS, pH 7.3, 4°C

stoichiometry N [2]	Substance	Kd [1] [µM]
	TTTGCCCAATTTGACAATATATTAAGAAATCCTCATCTAACCTGTTTTTCATTGGATAATTAAAACAAGAGGAAAGATCAGGGGGCAGGAAAATAAATTACCTAATACCTAGTCCTGGTTGATAAAACCAGAGGCAGAAAACCTCCCCGTTTTCTCAAACTTGCCCAAAAGACAACTGTTGAGTTTCCCCCATTGGGACGGAGGTTATG (double strand) [PatpT66-5'UTR]	5.62
2	cyAbrB1 (Sll0359), N-terminally 6*His-tagged recombinant protein (natural protein)	
